How the values were obtained:
[1] = target: Recombinant Human CD200R, His-tagged (Creative Biomart CD200R1-320H) (human) (UniProt Q8TD46); experiment: SPR (BIAcore), DS-155 captured (0.5 ug/mL), HuCD200R1 flowed at 500 nM to 31.25 nM, 25 C, 1:1 Binding model, run 1
[2] = target: Recombinant Cyno CD200R, His-tagged (Creative Biomart CD200R1-3483C) (cynomolgus monkey); experiment: SPR (BIAcore T200), CD200-Fc captured on anti-human Fc, cyno CD200R flowed, 25 C, 1:1 fit
[3] = target: Recombinant Human CD200R, His-tagged (Creative Biomart CD200R1-320H) (human) (UniProt Q8TD46); experiment: SPR (BIAcore T200), CD200-Fc captured on anti-human Fc, CD200R flowed, 25 C, 1:1 fit
[4] = target: Recombinant Cyno CD200R, His-tagged (Creative Biomart CD200R1-3483C) (cynomolgus monkey); experiment: SPR (BIAcore), DS-155 captured (0.5 ug/mL), CynoCD200R1 flowed at 1000 nM to 62.5 nM, 25 C, 1:1 Binding model, run 2
[5] = target: Recombinant Human CD200R, His-tagged (Creative Biomart CD200R1-320H) (human) (UniProt Q8TD46); experiment: SPR (BIAcore), DS-155 captured (0.5 ug/mL), HuCD200R1 flowed at 500 nM to 31.25 nM, 25 C, 1:1 Binding model, run 2
[6] = target: Recombinant Cyno CD200R, His-tagged (Creative Biomart CD200R1-3483C) (cynomolgus monkey); experiment: SPR (BIAcore T200), CD200-Fc captured on anti-human Fc, cyno CD200R flowed, 25 C, 1:1 fit, mean of two runs
[7] = target: Recombinant Human CD200R, His-tagged (Creative Biomart CD200R1-320H) (human) (UniProt Q8TD46); experiment: SPR, CD200R flowed over immobilized CD200-Fc, 25 C, 1:1 fit, mean of 2 experiments with standard deviation
[8] = target: Recombinant Cyno CD200R, His-tagged (Creative Biomart CD200R1-3483C) (cynomolgus monkey); experiment: SPR (BIAcore), DS-155 captured (0.5 ug/mL), CynoCD200R1 flowed at 1000 nM to 62.5 nM, 25 C, 1:1 Binding model, run 1
[9] = target: Recombinant Human CD200R, His-tagged (Creative Biomart CD200R1-320H) (human) (UniProt Q8TD46); experiment: SPR (BIAcore T200), CD200-Fc captured on anti-human Fc, CD200R flowed, 25 C, 1:1 fit, mean of two runs
[10] = target: Recombinant Human CD200R, His-tagged (Creative Biomart CD200R1-320H) (human) (UniProt Q8TD46); experiment: SPR, CD200R flowed over immobilized CD200-Fc, 25 C, 1:1 fit
[11] = target: Recombinant Cyno CD200R, His-tagged (Creative Biomart CD200R1-3483C) (cynomolgus monkey); experiment: SPR, cyno CD200R1 flowed over immobilized CD200-Fc, 25 C, 1:1 fit
[12] = target: Recombinant Cyno CD200R, His-tagged (Creative Biomart CD200R1-3483C) (cynomolgus monkey); experiment: SPR, cyno CD200R1 flowed over immobilized CD200-Fc, 25 C, 1:1 fit, mean of 2 experiments with standard deviation
[13] = target: Human CD200R, full length, on transduced U937 cells (U937-CD200R) (human) (UniProt Q8TD46); experiment: cell-based or functional assay
Chain of Human CD200R, full length, on transduced U937 cells (U937-CD200R) (human) (Q8TD46 25-348): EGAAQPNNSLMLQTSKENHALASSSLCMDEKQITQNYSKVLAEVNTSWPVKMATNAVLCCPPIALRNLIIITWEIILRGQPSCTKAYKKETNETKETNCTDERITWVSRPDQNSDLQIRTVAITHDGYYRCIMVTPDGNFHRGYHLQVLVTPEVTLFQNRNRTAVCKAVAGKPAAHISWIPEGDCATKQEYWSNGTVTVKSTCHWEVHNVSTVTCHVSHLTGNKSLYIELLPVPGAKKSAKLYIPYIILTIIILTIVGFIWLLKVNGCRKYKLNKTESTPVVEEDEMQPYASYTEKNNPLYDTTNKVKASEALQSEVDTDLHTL

Chain of Recombinant Human CD200R, His-tagged (Creative Biomart CD200R1-320H) (human) (Q8TD46 27-266 limits assumed): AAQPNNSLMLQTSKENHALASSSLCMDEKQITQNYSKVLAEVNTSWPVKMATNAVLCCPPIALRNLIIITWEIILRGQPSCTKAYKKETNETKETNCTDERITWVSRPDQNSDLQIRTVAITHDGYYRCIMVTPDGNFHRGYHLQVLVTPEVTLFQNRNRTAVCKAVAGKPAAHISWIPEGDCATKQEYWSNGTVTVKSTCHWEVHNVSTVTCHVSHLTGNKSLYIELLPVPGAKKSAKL

t½ [2]: 11.8 s | Kd [4]: 1050 nM | koff [4]: 0.0608 s⁻¹ | kon [4]: 57600 M⁻¹ s⁻¹ | Kd [6]: 971 nM | koff [6]: 0.0586 s⁻¹ | kon [6]: 60600 M⁻¹ s⁻¹ | Kd [8]: 888 nM | koff [8]: 0.0564 s⁻¹ | kon [8]: 63500 M⁻¹ s⁻¹ | T1/2 [11]: 11.8 s | Kd [12]: 971 nM
Substance: DS-155 (wild-type human CD200-Fc, IgG4 S228P Fc) (from UniProt P41217 31-232) (Fc fusion)
Kd [1]: 174 nM | koff [1]: 0.0324 s⁻¹ | kon [1]: 186000 M⁻¹ s⁻¹ | t½ [3]: 21.1 s | Kd [5]: 183 nM | kon [5]: 180000 M⁻¹ s⁻¹ | Kd [7]: 179 nM | Kd [9]: 179 nM | koff [9]: 0.0326 s⁻¹ | kon [9]: 183000 M⁻¹ s⁻¹ | T1/2 [10]: 21.1 s | inhibition of LPS stimulated IL-6 release from U937-CD200R cells, IC50 [13]: 0.18 µg/mL

— patent publication US20260116951A1
